This is an account of results in patent publication US20090192084A1.

For assay [1], the target named is p97-Myc. Briefly: p97-Myc co-IP, 293 cells, MudPIT MS.
Assay [2] deals with Cullin 2 (human) (UniProt Q13617). Briefly: Flag co-IP, MudPIT MS, MG132.
The target is the same in assay [3]. Briefly: Flag co-IP, MudPIT MS, DMSO.
The target in assay [4] is T1, VCIP135 (human) (UniProt Q96JH7).
T1 sequence (looked up): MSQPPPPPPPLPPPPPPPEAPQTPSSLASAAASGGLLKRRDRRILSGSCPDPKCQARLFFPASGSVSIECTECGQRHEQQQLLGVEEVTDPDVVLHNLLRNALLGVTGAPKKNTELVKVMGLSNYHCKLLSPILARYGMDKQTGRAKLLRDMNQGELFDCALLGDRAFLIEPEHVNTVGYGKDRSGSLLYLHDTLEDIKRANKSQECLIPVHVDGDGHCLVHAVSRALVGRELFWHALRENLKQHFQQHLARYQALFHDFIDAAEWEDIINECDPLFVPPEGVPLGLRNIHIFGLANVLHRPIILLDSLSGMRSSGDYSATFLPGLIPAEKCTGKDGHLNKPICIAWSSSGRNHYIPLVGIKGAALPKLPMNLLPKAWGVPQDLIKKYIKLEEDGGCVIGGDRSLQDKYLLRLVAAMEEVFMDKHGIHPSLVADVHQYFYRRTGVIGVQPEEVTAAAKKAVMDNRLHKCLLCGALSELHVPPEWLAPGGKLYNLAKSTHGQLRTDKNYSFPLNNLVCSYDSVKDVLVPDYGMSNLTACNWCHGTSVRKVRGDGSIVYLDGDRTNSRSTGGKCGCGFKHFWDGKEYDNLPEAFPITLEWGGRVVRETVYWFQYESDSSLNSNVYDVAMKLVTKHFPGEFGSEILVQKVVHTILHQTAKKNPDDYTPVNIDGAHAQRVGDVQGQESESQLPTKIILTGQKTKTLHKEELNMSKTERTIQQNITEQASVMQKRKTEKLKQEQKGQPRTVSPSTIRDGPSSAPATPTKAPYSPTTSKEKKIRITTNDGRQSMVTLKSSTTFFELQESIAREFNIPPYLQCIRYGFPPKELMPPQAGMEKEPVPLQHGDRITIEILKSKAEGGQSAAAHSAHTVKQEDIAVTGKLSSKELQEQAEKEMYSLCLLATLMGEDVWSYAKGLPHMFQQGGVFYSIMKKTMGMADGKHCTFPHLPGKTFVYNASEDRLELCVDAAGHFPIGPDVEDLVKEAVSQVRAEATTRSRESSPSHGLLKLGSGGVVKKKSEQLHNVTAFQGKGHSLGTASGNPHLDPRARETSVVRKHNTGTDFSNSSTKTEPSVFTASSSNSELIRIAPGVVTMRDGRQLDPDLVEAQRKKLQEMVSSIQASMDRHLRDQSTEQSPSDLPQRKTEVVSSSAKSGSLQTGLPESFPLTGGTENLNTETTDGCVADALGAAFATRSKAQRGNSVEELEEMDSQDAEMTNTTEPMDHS
Briefly: Flag co-IP, 293 cells, MudPIT MS.

Sequence of Cullin 2 (human) (Q13617 whole entry): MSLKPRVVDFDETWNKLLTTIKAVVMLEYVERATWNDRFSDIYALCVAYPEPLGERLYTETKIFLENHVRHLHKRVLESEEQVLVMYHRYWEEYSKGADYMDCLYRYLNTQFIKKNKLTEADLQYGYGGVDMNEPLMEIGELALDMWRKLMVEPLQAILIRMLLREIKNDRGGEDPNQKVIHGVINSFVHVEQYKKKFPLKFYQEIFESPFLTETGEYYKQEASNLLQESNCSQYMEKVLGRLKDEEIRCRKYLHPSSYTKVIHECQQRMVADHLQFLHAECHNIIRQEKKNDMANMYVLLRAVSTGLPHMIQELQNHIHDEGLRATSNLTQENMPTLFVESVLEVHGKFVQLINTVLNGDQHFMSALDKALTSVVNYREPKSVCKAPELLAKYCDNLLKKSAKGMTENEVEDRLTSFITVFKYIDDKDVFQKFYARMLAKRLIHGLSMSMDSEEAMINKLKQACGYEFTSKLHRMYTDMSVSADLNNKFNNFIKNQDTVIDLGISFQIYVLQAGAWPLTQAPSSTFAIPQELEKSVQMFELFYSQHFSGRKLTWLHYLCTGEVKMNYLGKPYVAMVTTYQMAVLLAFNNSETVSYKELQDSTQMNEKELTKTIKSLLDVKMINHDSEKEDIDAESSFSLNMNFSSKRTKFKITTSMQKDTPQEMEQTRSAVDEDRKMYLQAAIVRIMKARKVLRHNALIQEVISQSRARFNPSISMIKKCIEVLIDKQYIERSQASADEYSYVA
Sequence of p97-Myc (Q01853 2-806): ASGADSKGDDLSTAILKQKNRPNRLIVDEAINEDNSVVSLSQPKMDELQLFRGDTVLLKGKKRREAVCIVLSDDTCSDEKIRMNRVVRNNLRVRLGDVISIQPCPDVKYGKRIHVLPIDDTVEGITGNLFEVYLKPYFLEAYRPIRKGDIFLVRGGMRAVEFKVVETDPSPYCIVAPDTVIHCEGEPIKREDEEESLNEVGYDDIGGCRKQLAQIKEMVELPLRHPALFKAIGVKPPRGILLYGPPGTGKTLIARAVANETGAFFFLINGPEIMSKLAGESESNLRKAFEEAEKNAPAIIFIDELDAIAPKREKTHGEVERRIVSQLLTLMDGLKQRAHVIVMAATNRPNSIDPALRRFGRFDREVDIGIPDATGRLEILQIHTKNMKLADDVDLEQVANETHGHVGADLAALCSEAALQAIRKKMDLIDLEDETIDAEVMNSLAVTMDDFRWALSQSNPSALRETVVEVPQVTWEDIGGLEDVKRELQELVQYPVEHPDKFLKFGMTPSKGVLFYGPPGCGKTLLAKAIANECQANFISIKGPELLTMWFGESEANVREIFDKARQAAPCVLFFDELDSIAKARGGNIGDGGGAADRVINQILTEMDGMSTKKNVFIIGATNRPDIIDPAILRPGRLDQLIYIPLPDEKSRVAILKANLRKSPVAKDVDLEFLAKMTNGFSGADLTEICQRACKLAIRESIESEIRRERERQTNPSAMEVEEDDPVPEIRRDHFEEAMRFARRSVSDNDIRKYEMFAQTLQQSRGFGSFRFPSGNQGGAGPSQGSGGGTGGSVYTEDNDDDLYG

B1: endogenous UBXD8 (protein, human, UniProt Q96CS3 2-445, looked up)
chain: AAPEERDLTQEQTEKLLQFQDLTGIESMDQCRHTLEQHNWNIEAAVQDRLNEQEGVPSVFNPPPSRPLQVNTADHRIYSYVVSRPQPRGLLGWGYYLIMLPFRFTYYTILDIFRFALRFIRPDPRSRVTDPVGDIVSFMHSFEEKYGRAHPVFYQGTYSQALNDAKRELRFLLVYLHGDDHQDSDEFCRNTLCAPEVISLINTRMLFWACSTNKPEGYRVSQALRENTYPFLAMIMLKDRRMTVVGRLEGLIQPDDLINQLTFIMDANQTYLVSERLEREERNQTQVLRQQQDEAYLASLRADQEKERKKREERERKRRKEEEVQQQKLAEERRRQNLQEEKERKLECLPPEPSPDDPESVKIIFKLPNDSRVERRFHFSQSLTVIHDFLFSLKESPEKFQIEANFPRRVLPCIPSEEWPNPPTLQEAGLSHTEVLFVQDLTDE
In assay [1], B1 showed a sequence count of 11, a sequence coverage of 33.7% and a spectrum count of 12.

B2: endogenous p47 (protein, human, UniProt Q9UNZ2 1-370, looked up)
chain: MAAERQEALREFVAVTGAEEDRARFFLESAGWDLQIALASFYEDGGDEDIVTISQATPSSVSRGTAPSDNRVTSFRDLIHDQDEDEEEEEGQRFYAGGSERSGQQIVGPPRKKSPNELVDDLFKGAKEHGAVAVERVTKSPGETSKPRPFAGGGYRLGAAPEEESAYVAGEKRQHSSQDVHVVLKLWKSGFSLDNGELRSYQDPSNAQFLESIRRGEVPAELRRLAHGGQVNLDMEDHRDEDFVKPKGAFKAFTGEGQKLGSTAPQVLSTSSPAQQAENEAKASSSILIDESEPTTNIQIRLADGGRLVQKFNHSHRISDIRLFIVDARPAMAATSFILMTTFPNKELADESQTLKEANLLNAVIVQRLT
B2: in assay [1], the sequence count turned out to be 19, the sequence coverage amounted to 52.2% and the spectrum count turned out to be 153.

B3: endogenous SAKS1 (protein, human, UniProt Q04323 2-297, looked up)
chain: AELTALESLIEMGFPRGRAEKALALTGNQGIEAAMDWLMEHEDDPDVDEPLETPLGHILGREPTSSEQGGLEGSGSAAGEGKPALSEEERQEQTKRMLELVAQKQREREEREEREALERERQRRRQGQELSAARQRLQEDEMRRAAEERRREKAEELAARQRVREKIERDKAERAKKYGGSVGSQPPPVAPEPGPVPSSPSQEPPTKREYDQCRIQVRLPDGTSLTQTFRAREQLAAVRLYVELHRGEELGGGQDPVQLLSGFPRRAFSEADMERPLQELGLVPSAVLIVAKKCPS
In assay [1], B3 returned a sequence count of 2, a sequence coverage of 19.5% and a spectrum count of 2.

B4: Flag-UBXD8 (protein, UniProt Q96CS3 1-445, looked up, not shown: small tags and cut ends)
chain: MAAPEERDLTQEQTEKLLQFQDLTGIESMDQCRHTLEQHNWNIEAAVQDRLNEQEGVPSVFNPPPSRPLQVNTADHRIYSYVVSRPQPRGLLGWGYYLIMLPFRFTYYTILDIFRFALRFIRPDPRSRVTDPVGDIVSFMHSFEEKYGRAHPVFYQGTYSQALNDAKRELRFLLVYLHGDDHQDSDEFCRNTLCAPEVISLINTRMLFWACSTNKPEGYRVSQALRENTYPFLAMIMLKDRRMTVVGRLEGLIQPDDLINQLTFIMDANQTYLVSERLEREERNQTQVLRQQQDEAYLASLRADQEKERKKREERERKRRKEEEVQQQKLAEERRRQNLQEEKERKLECLPPEPSPDDPESVKIIFKLPNDSRVERRFHFSQSLTVIHDFLFSLKESPEKFQIEANFPRRVLPCIPSEEWPNPPTLQEAGLSHTEVLFVQDLTDE
In assay [2], B4 registered an abundance factor (AF) of 10.3, a sequence count of 8 and a spectrum count of 38. In addition, in assay [3], the abundance factor (AF) stood at 2.4, the sequence count was 4 and the spectrum count was determined as 12.

B5: endogenous p37 (protein, human, UniProt Q14CS0 2-331, looked up)
chain: AEGGGPEPGEQERRSSGPRPPSARDLQLALAELYEDEVKCKSSKSNRPKATVFKSPRTPPQRFYSSEHEYSGLNIVRPSTGKIVNELFKEAREHGAVPLNEATRASGDDKSKSFTGGGYRLGSSFCKRSEYIYGENQLQDVQILLKLWSNGFSLDDGELRPYNEPTNAQFLESVKRGEIPLELQRLVHGGQVNLDMEDHQDQEYIKPRLRFKAFSGEGQKLGSLTPEIVSTPSSPEEEDKSILNAVVLIDDSVPTTKIQIRLADGSRLIQRFNSTHRILDVRNFIVQSRPEFAALDFILVTSFPNKELTDESLTLLEADILNTVLLQQLK
For B5, in assay [1], the sequence count turned out to be 6, the sequence coverage worked out at 32.3% and the spectrum count came to 7.

B6: Flag-SAKS1 (protein, UniProt Q04323 1-297, looked up, not shown: small tags and cut ends)
chain: MAELTALESLIEMGFPRGRAEKALALTGNQGIEAAMDWLMEHEDDPDVDEPLETPLGHILGREPTSSEQGGLEGSGSAAGEGKPALSEEERQEQTKRMLELVAQKQREREEREEREALERERQRRRQGQELSAARQRLQEDEMRRAAEERRREKAEELAARQRVREKIERDKAERAKKYGGSVGSQPPPVAPEPGPVPSSPSQEPPTKREYDQCRIQVRLPDGTSLTQTFRAREQLAAVRLYVELHRGEELGGGQDPVQLLSGFPRRAFSEADMERPLQELGLVPSAVLIVAKKCPS
In assay [2], B6 gave an abundance factor (AF) of 5.5, a sequence count of 4 and a spectrum count of 11. In assay [3], this molecule showed an abundance factor (AF) of 3.7, a sequence count of 3 and a spectrum count of 4.

B7: Flag-p47 (protein, UniProt O35987 1-370, looked up, not shown: small tags and cut ends)
chain: MAEERQDALREFVAVTGAEEDRARFFLESAGWDLQIALASFYEDGGDEDIVTISQATPSSVSRGTAPSDNRVTSFRDLIHDQDEEEEEEEGQRFYAGGSERSGQQIVGPPRKKSPNELVDDLFKGAKEHGAVAVERVTKSPGETSKPRPFAGGGYRLGAAPEEESAYVAGERRRHSGQDVHVVLKLWKTGFSLDNGDLRSYQDPSNAQFLESIRRGEVPAELRRLAHGGQVNLDMEDHRDEDFVKPKGAFKAFTGEGQKLGSTAPQVLNTSSPAQQAENEAKASSSILINEAEPTTNIQIRLADGGRLVQKFNHSHRISDIRLFIVDARPAMAATSFVLMTTFPNKELADENQTLKEANLLNAVIVQRLT
In assay [4], B7 returned a sequence count of 14, a sequence coverage of 17.6% and a spectrum count of 15.

B8: endogenous UBXD4 (protein, human, UniProt P68543 1-259, looked up)
chain: MKDVDNLKSIKEEWVCETGSDNQPLGNNQQSNCEYFVDSLFEEAQKVSSKCVSPAEQKKQVDVNIKLWKNGFTVNDDFRSYSDGASQQFLNSIKKGELPSELQGIFDKEEVDVKVEDKKNEICLSTKPVFQPFSGQGHRLGSATPKIVSKAKNIEVENKNNLSAVPLNNLEPITNIQIWLANGKRIVQKFNITHRVSHIKDFIEKYQGSQRSPPFSLATALPVLRLLDETLTLEEADLQNAVIIQRLQKTASFRELSEH
With B8, in assay [1], the sequence count is 4, the sequence coverage stood at 19.3% and the spectrum count was determined as 5.
